Data: paper PMC11187106, “Master corepressor inactivation through multivalent SLiM-induced polymerization mediated by the oncogene suppressor RAI2” (Nature Communications, 2024)
Values belong to the binder of their own block, whether it stands above or below them.

Legend:
Settings in all cases: both partners purified
[1] = biological target: CtBP1(WT, FL) (human, UniProt Q13363 1-440); experiment: ITC; VP-ITC, 25 °C, 50 mM HEPES (pH 7.2), 150 mM NaCl; CtBP in the cell (10 µM for RAI2 M1 or M2, 20 µM for the WT RAI2 constructs), RAI2 in the syringe (100 µM); mean of three independent measurements ± SD
[2] = biological target: T1, CtBP1(WT, FL) (human, UniProt Q13363 1-440); experiment: ITC; VP-ITC, 25 °C, 50 mM HEPES (pH 7.2), 150 mM NaCl; CtBP in the cell (10 µM for M1 or M2, 20 µM for WT RAI2 constructs), RAI2 constructs in the syringe (100 µM); mean of three measurements
[3] = biological target: CtBP1(WT, FL) (human, UniProt Q13363 1-440); experiment: ITC; VP-ITC, 25 °C, 50 mM HEPES (pH 7.2), 150 mM NaCl; CtBP in the cell (10 µM for RAI2 M1 or M2, 20 µM for the WT RAI2 constructs), RAI2 in the syringe (100 µM); mean of three independent measurements ± SD; remark: listed apart in the source
[4] = biological target: T1, CtBP1(WT, FL); experiment: SEC; analytical Superose 6 3.2/300 GL, 50 mM HEPES (pH 7.2), 150 mM NaCl; CtBP kept at 100 µM, RAI2 variants titrated at 1:0.1, 1:0.2, 1:0.5, 1:1 and 1:2
[5] = biological target: CtBP1(K46W) (human, UniProt Q13363 1-440, K46W); experiment: ITC; VP-ITC, 25 °C, 50 mM HEPES (pH 7.2), 150 mM NaCl; CtBP in the cell (10 µM for RAI2 M1 or M2, 20 µM for the WT RAI2 constructs), RAI2 in the syringe (100 µM); mean of three independent measurements ± SD
[6] = biological target: CtBP1(WT, FL) (human, UniProt Q13363 1-440); experiment: ITC; VP-ITC, 25 °C, 50 mM HEPES (pH 7.2), 150 mM NaCl; CtBP1 in the cell (20 µM for WT RAI2, 10 µM for M1 or M2), RAI2(303-362) variants 100 µM in the syringe; mean of three independent measurements
[7] = biological target: CtBP1(K46W) (human, UniProt Q13363 1-440, K46W); experiment: ITC; VP-ITC, 25 °C, 50 mM HEPES (pH 7.2), 150 mM NaCl; CtBP in the cell (10 µM for M1 or M2, 20 µM for WT RAI2 constructs), RAI2 constructs in the syringe (100 µM); mean of three measurements

B6: RAI2(WT, 303-362) (domain or fragment)
chain: SRHTVIKMGSENEALDLSMKSVPWLKAGEVSPPIFQEDAALDLSVAAHRKSEPPPETLYD
notes: this construct came from the same vector (pETGB1a, TEV site) and may carry the same residues; source: E. coli BL21 DE3 LOBSTR, purified (HisTrap, TEV cleavage, Superdex 75); not shown: His6, N-terminal, cleaved
- Kd [5]: 4.5 µM
- stoichiometry N [5]: 0.26
- Kd [3]: 1.1 µM
- stoichiometry N [3]: 0.42

B7: RAI2(WT, 303-362) (domain or fragment)
chain: SRHTVIKMGSENEALDLSMKSVPWLKAGEVSPPIFQEDAALDLSVAAHRKSEPPPETLYD
notes: Cloned in pETGB1a with a TEV site; also called Retinoic Acid-Induced 2; source: E. coli BL21 DE3 LOBSTR, purified (HisTrap, TEV cleavage, Superdex 75); not shown: His6, N-terminal, cleaved
- Kd [6]: 1.09 µM
- stoichiometry N [6]: 0.42

B8: RAI2(WT, 303–362) (domain or fragment, human, UniProt Q9Y5P3 303-362, looked up)
chain: SRHTVIKMGSENEALDLSMKSVPWLKAGEVSPPIFQEDAALDLSVAAHRKSEPPPETLYD
notes: 15N/13C-labelled for NMR; A residue of the TEV site (ENLYFQG) may remain at the N-terminus; PDB 8ARI holds the Δ11 variant of the same limits; source: E. coli BL21 DE3 LOBSTR, purified (HisTrap, TEV cleavage, Superdex 75); not shown: His6, N-terminal, cleaved
- stoichiometry N [7]: < 0.3
- fold change in binding stoichiometry against M1 and M2 [2]: ~2 fold
- fold increase in binding affinity against M1 and M2 [2]: 5 fold
- stoichiometry N [2]: 0.5

B9: RAI2(M1, 303-362) (domain or fragment)
chain: SRHTVIKMGSENEALDAAMKSVPWLKAGEVSPPIFQEDAALDLSVAAHRKSEPPPETLYD
notes: source: E. coli BL21 DE3 LOBSTR, purified (HisTrap, TEV cleavage, Superdex 75); not shown: His6, N-terminal, cleaved
- Kd [6]: 5.53 µM
- stoichiometry N [6]: 0.785

B10: RAI2(M1, 303–362) (domain or fragment)
chain: SRHTVIKMGSENEALDAAMKSVPWLKAGEVSPPIFQEDAALDLSVAAHRKSEPPPETLYD
notes: 15N-labelled for NMR; PDB 8ARI holds the Δ11 variant of the same limits; source: E. coli BL21 DE3 LOBSTR, purified (HisTrap, TEV cleavage, Superdex 75); not shown: His6, N-terminal, cleaved
- Kd [2]: ~5 µM

B11: RAI2(M1, 303-362) (domain or fragment)
chain: SRHTVIKMGSENEALDAAMKSVPWLKAGEVSPPIFQEDAALDLSVAAHRKSEPPPETLYD
notes: as for B9
- Kd [3]: 5.5 µM
- stoichiometry N [3]: 0.78

B12: RAI2(M2, 303-362) (domain or fragment)
chain: SRHTVIKMGSENEALDLSMKSVPWLKAGEVSPPIFQEDAALDAAVAAHRKSEPPPETLYD
notes: as for B9
- Kd [6]: 3.87 µM
- stoichiometry N [6]: 0.836

B13: RAI2(M2, 303-362) (domain or fragment)
chain: SRHTVIKMGSENEALDLSMKSVPWLKAGEVSPPIFQEDAALDAAVAAHRKSEPPPETLYD
notes: as for B9
- Kd [3]: 3.9 µM
- stoichiometry N [3]: 0.84

Next, values leading:

- Kd [1]: 1.5 µM
- stoichiometry N [1]: 0.34
B1: RAI2(WT, 303-530) (domain or fragment)
chain: SRHTVIKMGSENEALDLSMKSVPWLKAGEVSPPIFQEDAALDLSVAAHRKSEPPPETLYDSGASVDSSGHTVMEKLPSGMEISFAPATSHEAPAMMDSHISSSDAATEMLSQPNHPSGEVKAENNIEMVGESQAAKVIVSVEDAVPTIFCGKIKGLSGVSTKNFSFKREDSVLQGYDINSQGEESMGNAEPLRKPIKNRSIKLKKVNSQEIHMLPIKKQRLATFFPRK

- binding result [2]: binds
B2: RAI2(WT, 303–530) (domain or fragment)
chain: SRHTVIKMGSENEALDLSMKSVPWLKAGEVSPPIFQEDAALDLSVAAHRKSEPPPETLYDSGASVDSSGHTVMEKLPSGMEISFAPATSHEAPAMMDSHISSSDAATEMLSQPNHPSGEVKAENNIEMVGESQAAKVIVSVEDAVPTIFCGKIKGLSGVSTKNFSFKREDSVLQGYDINSQGEESMGNAEPLRKPIKNRSIKLKKVNSQEIHMLPIKKQRLATFFPRK
notes: as for B9

- Kd [3]: 1.5 µM
- stoichiometry N [3]: 0.32
B3: RAI2(WT, 303-465) (domain or fragment)
chain: SRHTVIKMGSENEALDLSMKSVPWLKAGEVSPPIFQEDAALDLSVAAHRKSEPPPETLYDSGASVDSSGHTVMEKLPSGMEISFAPATSHEAPAMMDSHISSSDAATEMLSQPNHPSGEVKAENNIEMVGESQAAKVIVSVEDAVPTIFCGKIKGLSGVSTKN
notes: this construct came from the same vector and may carry the same residues; source: E. coli BL21 DE3 LOBSTR, purified (HisTrap, TEV cleavage, Superdex 75); not shown: His6, N-terminal, cleaved

- binding result [4]: binds
B4: RAI2(M1, 303–465) (domain or fragment)
chain: SRHTVIKMGSENEALDAAMKSVPWLKAGEVSPPIFQEDAALDLSVAAHRKSEPPPETLYDSGASVDSSGHTVMEKLPSGMEISFAPATSHEAPAMMDSHISSSDAATEMLSQPNHPSGEVKAENNIEMVGESQAAKVIVSVEDAVPTIFCGKIKGLSGVSTKN
notes: PDB 8ATI holds the M2 variant of the same limits; source: E. coli BL21 DE3 LOBSTR, purified (HisTrap, TEV cleavage, Superdex 75); not shown: His6, N-terminal, cleaved

- binding result [4]: binds
B5: RAI2(M2, 303–465) (domain or fragment)
chain: SRHTVIKMGSENEALDLSMKSVPWLKAGEVSPPIFQEDAALDAAVAAHRKSEPPPETLYDSGASVDSSGHTVMEKLPSGMEISFAPATSHEAPAMMDSHISSSDAATEMLSQPNHPSGEVKAENNIEMVGESQAAKVIVSVEDAVPTIFCGKIKGLSGVSTKN
notes: only residues 315-321 (EALDLSM) are seen in the crystal structure; source: E. coli BL21 DE3 LOBSTR, purified (HisTrap, TEV cleavage, Superdex 75); not shown: His6, N-terminal, cleaved

- Kd [2]: ~5 µM
B14: RAI2(M2, 303–362) (domain or fragment)
chain: SRHTVIKMGSENEALDLSMKSVPWLKAGEVSPPIFQEDAALDAAVAAHRKSEPPPETLYD
notes: as for B10

- Kd [5]: 7.2 µM
- stoichiometry N [5]: 0.29
- Kd [3]: 0.8 µM
- stoichiometry N [3]: 0.41
B15: RAI2(Δ11, 303-362) (domain or fragment, UniProt Q9Y5P3 303-362, looked up)
chain: SRHTVIKMGSENEALDLSMKSVPWLKAGALDLSVAAHRKSEPPPETLYD
notes: as for B9
